The results in this text go back to paper PMC2659343.

Like-named read-outs stand apart in the source and are kept apart here.

Data set [1] has as its target T1, MCR1 (MBP-core RAG1) (UniProt P15919 384-1008).
T1 sequence: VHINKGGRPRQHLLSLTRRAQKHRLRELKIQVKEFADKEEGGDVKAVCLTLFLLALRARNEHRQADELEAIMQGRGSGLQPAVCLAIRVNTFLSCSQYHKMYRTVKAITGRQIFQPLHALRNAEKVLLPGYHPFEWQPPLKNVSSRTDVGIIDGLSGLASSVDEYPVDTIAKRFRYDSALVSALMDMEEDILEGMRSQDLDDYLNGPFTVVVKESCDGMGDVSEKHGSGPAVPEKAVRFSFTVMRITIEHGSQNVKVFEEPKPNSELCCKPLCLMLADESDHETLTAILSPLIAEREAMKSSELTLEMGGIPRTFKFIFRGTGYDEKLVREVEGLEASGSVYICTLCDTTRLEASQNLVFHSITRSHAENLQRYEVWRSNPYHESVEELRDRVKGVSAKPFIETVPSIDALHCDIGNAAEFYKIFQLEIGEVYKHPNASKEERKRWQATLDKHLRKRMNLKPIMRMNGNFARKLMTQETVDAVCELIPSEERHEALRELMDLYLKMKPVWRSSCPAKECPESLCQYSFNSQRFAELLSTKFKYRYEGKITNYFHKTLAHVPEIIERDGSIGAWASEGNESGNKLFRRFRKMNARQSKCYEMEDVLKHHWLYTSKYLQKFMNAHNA
The experiment in a line: EMSA. A general note: A gel shift assay detects complexes by their altered migration in electrophoresis.

The target of data set [2] is T2, MCR1 from 293T (co-expressed with GST-core RAG2);GST-core RAG2 (mouse?;mouse?, UniProt P15919;P21784 384-1008;1-387, |).
T2 sequence 1: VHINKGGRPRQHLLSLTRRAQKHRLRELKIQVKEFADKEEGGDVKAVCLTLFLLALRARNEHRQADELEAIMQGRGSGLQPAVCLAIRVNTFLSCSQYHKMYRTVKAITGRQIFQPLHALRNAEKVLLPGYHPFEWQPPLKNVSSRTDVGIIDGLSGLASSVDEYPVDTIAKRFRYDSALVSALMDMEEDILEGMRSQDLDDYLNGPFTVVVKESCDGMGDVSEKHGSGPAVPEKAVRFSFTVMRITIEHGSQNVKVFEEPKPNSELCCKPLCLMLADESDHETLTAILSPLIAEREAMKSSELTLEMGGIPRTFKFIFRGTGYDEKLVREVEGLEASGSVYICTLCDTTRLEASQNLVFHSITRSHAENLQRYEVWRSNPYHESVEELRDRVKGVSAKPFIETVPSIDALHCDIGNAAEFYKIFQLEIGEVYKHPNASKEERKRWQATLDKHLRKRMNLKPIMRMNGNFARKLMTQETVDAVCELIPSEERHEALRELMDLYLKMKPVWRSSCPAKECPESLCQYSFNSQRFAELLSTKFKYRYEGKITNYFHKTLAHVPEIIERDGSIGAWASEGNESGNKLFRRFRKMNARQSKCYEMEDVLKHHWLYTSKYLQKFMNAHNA
T2 sequence 2: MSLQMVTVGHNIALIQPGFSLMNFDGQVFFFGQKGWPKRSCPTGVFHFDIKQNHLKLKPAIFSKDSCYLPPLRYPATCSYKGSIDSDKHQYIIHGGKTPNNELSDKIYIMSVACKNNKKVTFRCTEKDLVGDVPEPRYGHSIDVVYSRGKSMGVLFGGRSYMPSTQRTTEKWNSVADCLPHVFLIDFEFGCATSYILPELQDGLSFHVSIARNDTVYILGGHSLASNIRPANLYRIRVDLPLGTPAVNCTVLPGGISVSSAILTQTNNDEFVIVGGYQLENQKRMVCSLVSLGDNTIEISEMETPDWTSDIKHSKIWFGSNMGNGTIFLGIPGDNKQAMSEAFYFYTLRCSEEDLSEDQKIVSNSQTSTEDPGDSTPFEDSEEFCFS
The experiment in a line: EMSA.

Data set [3] has as its target T3, MCR1 (MBP-core RAG1);GST-core RAG2 (mouse?;mouse?, UniProt P15919;P21784 384-1008;1-387, |).
T3 sequence 1: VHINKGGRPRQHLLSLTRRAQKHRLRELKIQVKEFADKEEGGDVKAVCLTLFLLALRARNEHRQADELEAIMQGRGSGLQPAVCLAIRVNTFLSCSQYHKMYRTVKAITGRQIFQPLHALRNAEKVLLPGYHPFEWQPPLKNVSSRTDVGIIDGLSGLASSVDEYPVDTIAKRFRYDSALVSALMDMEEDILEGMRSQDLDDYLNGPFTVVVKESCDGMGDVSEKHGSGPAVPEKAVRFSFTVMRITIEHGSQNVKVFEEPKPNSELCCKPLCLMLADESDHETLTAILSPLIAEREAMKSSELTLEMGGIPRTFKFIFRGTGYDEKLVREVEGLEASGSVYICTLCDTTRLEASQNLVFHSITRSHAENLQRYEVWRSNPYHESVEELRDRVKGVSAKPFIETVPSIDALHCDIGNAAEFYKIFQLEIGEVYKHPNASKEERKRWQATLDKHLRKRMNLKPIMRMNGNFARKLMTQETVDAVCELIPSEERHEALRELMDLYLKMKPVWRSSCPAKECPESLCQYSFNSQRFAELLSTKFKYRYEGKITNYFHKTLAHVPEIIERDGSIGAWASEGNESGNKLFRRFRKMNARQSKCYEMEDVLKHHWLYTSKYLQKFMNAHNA
T3 sequence 2: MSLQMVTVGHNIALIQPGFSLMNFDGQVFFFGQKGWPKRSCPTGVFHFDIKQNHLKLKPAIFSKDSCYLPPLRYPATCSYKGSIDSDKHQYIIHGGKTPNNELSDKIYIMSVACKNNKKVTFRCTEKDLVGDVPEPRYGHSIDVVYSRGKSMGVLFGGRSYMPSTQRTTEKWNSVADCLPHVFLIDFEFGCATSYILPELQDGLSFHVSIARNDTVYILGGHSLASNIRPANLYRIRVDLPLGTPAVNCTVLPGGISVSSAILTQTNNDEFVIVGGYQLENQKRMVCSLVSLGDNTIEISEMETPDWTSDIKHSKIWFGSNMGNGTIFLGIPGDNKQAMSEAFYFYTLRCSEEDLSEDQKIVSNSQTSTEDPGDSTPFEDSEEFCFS
Briefly: EMSA.

Data set [4] addresses T1, MCR1 (MBP-core RAG1). The experiment in a line: fluorescence anisotropy. Background: Polarisation of emitted light reports the rotation of a fluorescent probe.
For data set [5], the target named is T2, MCR1 from 293T (co-expressed with …). Briefly: EMSA. The source holds these as a separate data set.
Data set [6] deals with T3, MCR1 (MBP-core RAG1);GST-core RAG2. Briefly: EMSA. The source holds these as a separate data set.
The target of data set [7] is T1, MCR1 (MBP-core RAG1). The experiment in a line: EMSA. The source holds these as a separate data set.
For data set [8], the target named is T2, MCR1 from 293T (co-expressed with …). Briefly: EMSA. This is another data set of the same source.
Data set [9] has as its target T1, MCR1 (MBP-core RAG1). The experiment in a line: fluorescence anisotropy. The source holds these as a separate data set.
Data set [10] has as its target T1, MCR1 (MBP-core RAG1). The experiment in a line: fluorescence anisotropy. The source holds these as a separate data set.
Data set [11] concerns the target T1, MCR1 (MBP-core RAG1). Briefly: competition.

For orientation: Kd means the constant that tells how readily two partners part at equilibrium. Read a low Kd as a tighter complex. A word on the IC50: it is the midpoint of a concentration-inhibition curve.

B1: MHMN (mutant heptamer, mutant nonamer) (dsDNA)
DNA 1: GATATGGCTCGTCTTAGAGAAGCATATAGACCTTAAGGCTCTGATCCAATCGAGCGGAG
DNA 2: CTCCGCTCGATTGGATCAGAGCCTTAAGGTCTATATGCTTCTCTAAGACGAGCCATATC
B1: the Kd with MCR1 (MBP-core RAG1) [1] worked out at 123 ± 7 nM. Further, the binding result in data set [2] and in data set [3] was “no binding” throughout.

B2: Oregon Green MHMN (dsDNA)
DNA 1: GATATGGCTCGTCTTAGAGAAGCATATAGACCTTAAGGCTCTGATCCAATCGAGCGGAG
DNA 2: CTCCGCTCGATTGGATCAGAGCCTTAAGGTCTATATGCTTCTCTAAGACGAGCCATATC
Molecule B2 returned an equilibrium dissociation constant (Kd) with MCR1 (MBP-core RAG1) [4] of 28 ± 8 nM.

B3: WT 12-RSS (dsDNA)
DNA 1: GATATGGCTCGTCTTACACAGTGATATAGACCTTAACAAAAACCTCCAATCGAGCGGAG
DNA 2: CTCCGCTCGATTGGAGGTTTTTGTTAAGGTCTATATCACTGTGTAAGACGAGCCATATC
Consider B3, for which the Kd came to 25 ± 5 nM in [5], 87 ± 10 nM in data set [6], 114 ± 5 nM in the data set with MCR1 (MBP-core RAG1) [7] and 32 ± 5 nM in [8].

B4: Oregon Green WT 12-RSS (dsDNA)
DNA 1: GATATGGCTCGTCTTACACAGTGATATAGACCTTAACAAAAACCTCCAATCGAGCGGAG
DNA 2: CTCCGCTCGATTGGAGGTTTTTGTTAAGGTCTATATCACTGTGTAAGACGAGCCATATC
On to B4, for which the results for the Kd with MCR1 (MBP-core RAG1) [9] and in the data set with MCR1 (MBP-core RAG1) [10] were 123 nM and 27 ± 9 nM, respectively.

B5: unlabeled WT 12-RSS competitor (dsDNA)
DNA 1: GATATGGCTCGTCTTACACAGTGATATAGACCTTAACAAAAACCTCCAATCGAGCGGAG
DNA 2: CTCCGCTCGATTGGAGGTTTTTGTTAAGGTCTATATCACTGTGTAAGACGAGCCATATC
In turn, B5 displayed an IC50 in the data set with MCR1 (MBP-core RAG1) [11] of 150 nM.
